Measured values as given in patent US20210002644, “ANTI-CHYMASE APTAMER AND USE FOR SAME” (RIBOMIC INC., published 2021).

T1: chymase (native, human skin mast cell) (Homo sapiens, UniProt P23946 P23946:22-247)
T1 sequence: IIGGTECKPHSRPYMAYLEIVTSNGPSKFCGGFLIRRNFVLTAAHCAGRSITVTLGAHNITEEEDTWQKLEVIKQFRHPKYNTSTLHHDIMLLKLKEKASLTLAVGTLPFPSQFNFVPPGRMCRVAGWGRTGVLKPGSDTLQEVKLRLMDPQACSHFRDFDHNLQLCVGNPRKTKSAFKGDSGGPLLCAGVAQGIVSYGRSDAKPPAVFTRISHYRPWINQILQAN

B1: SEQ ID NO: 17(2) (ssRNA)
RNA: GAUGAUCGGACAUAACAUUGUUGGGGUGUCAA
modifications: idT-G(M)A(M)U(F)G(M)A(M)U(F)C(F)G(M)G(M)A(M)C(F)A(M)U(F)AAC(F)AU(F)U(F)G(M)U(F)U(F)G(M)GG(M)G(M)U(F)G(M)U(F)C(F)A(M)A(M)-idT (F=2'-F, M=2'-OMe)
B2: SEQ ID NO: 17(4) (mixed)
RNA: B1 RNA
modifications: idT-G(M)A(M)U(F)G(M)A(M)U(F)C(F)G(M)G(M)A(M)C(F)A(M)U(F)AAC(F)ATTG(M)U(F)U(F)G(M)GG(M)G(M)U(F)G(M)U(F)C(F)A(M)A(M)-idT (F=2'-F, M=2'-OMe)
B3: SEQ ID NO: 17(5) (mixed)
RNA: B1 RNA
modifications: idT-G(M)A(M)U(F)G(M)A(M)U(F)C(F)G(M)G(M)A(M)C(F)A(M)U(F)AAC(F)ATTG(M)U(F)U(F)G(M)GG(M)G(M)TG(M)TCA(M)A(M)-idT (F=2'-F, M=2'-OMe)
B4: SEQ ID NO: 17(6) (mixed)
RNA: B1 RNA
modifications: idT-G(M)A(M)U(F)G(M)A(M)U(F)C(F)G(M)G(M)A(M)C(F)A(M)U(F)AAC(F)A(M)TTG(M)U(F)U(F)G(M)GG(M)G(M)TG(M)TCA(M)A(M)-idT (F=2'-F, M=2'-OMe)
B5: SEQ ID NO: 17(7) (mixed)
RNA: B1 RNA
modifications: idT-G(M)A(M)TG(M)A(M)U(F)C(F)G(M)G(M)A(M)CA(M)U(F)AAC(F)A(M)TTG(M)U(F)U(F)G(M)GG(M)G(M)TG(M)TCA(M)A(M)-idT (F=2'-F, M=2'-OMe; printed LT(F) read as U(F))
B6: SEQ ID NO: 17(8) (mixed)
RNA: B1 RNA
modifications: idT-G(M)A(M)U(F)G(M)A(M)U(F)C(F)G(M)G(M)A(M)C(F)A(M)U(M)AAC(F)A(M)TTG(M)U(F)U(F)G(M)GG(M)G(M)TG(M)TCA(M)A(M)-idT (F=2'-F, M=2'-OMe)
B7: SEQ ID NO: 17(9) (mixed)
RNA: B1 RNA
modifications: idT-G(M)A(M)U(F)G(M)A(M)U(F)C(F)G(M)G(M)A(M)C(F)A(M)U(F)AAC(M)A(M)TTG(M)U(F)U(F)G(M)GG(M)G(M)TG(M)TCA(M)A(M)-idT (F=2'-F, M=2'-OMe)
B8: SEQ ID NO: 17(10) (mixed)
RNA: B1 RNA
modifications: idT-G(M)A(M)U(F)G(M)A(M)U(F)C(F)G(M)G(M)A(M)C(F)A(M)U(F)AAC(F)A(M)TTG(M)U(M)U(F)G(M)GG(M)G(M)TG(M)TCA(M)A(M)-idT (F=2'-F, M=2'-OMe)
B9: SEQ ID NO: 17(11) (mixed)
RNA: B1 RNA
modifications: idT-G(M)A(M)U(F)G(M)A(M)U(F)C(F)G(M)G(M)A(M)C(F)A(M)U(F)AAC(F)A(M)TTG(M)U(F)U(M)G(M)GG(M)G(M)TG(M)TCA(M)A(M)-idT (F=2'-F, M=2'-OMe)
B10: SEQ ID NO: 17(12) (mixed)
RNA: B1 RNA
modifications: X-S-G(M)A(M)U(F)G(M)A(M)U(F)C(F)G(M)G(M)A(M)C(F)A(M)U(F)AAC(F)A(M)TTG(M)U(F)U(F)G(M)GG(M)G(M)TG(M)TCA(M)A(M)-idT (F=2'-F, M=2'-OMe; X=Phe-Cys peptide, S=thiol)
B11: SEQ ID NO: 17(13) (mixed)
RNA: B1 RNA
modifications: Y-S-G(M)A(M)U(F)G(M)A(M)U(F)C(F)G(M)G(M)A(M)C(F)A(M)U(F)AAC(F)A(M)TTG(M)U(F)U(F)G(M)GG(M)G(M)TG(M)TCA(M)A(M)-idT (F=2'-F, M=2'-OMe; Y=Cys-Phe peptide, S=thiol)
B12: SEQ ID NO: 17(14) (mixed)
RNA: B1 RNA
modifications: idT-G(M)A(M)U(F)G(M)A(M)U(F)C(F)G(M)G(M)A(M)C(F)A(M)U(F)AAC(F)A(M)TTG(M)U(F)U(F)G(M)GG(M)G(M)TG(M)TCA(M)A(M)-S-Y (F=2'-F, M=2'-OMe; Y=Cys-Phe peptide, S=thiol)
B13: SEQ ID NO: 17(15) (mixed)
RNA: B1 RNA
modifications: idT-G(M)A(PHE)U(F)G(M)A(M)U(F)C(F)G(M)G(M)A(M)C(F)A(M)U(F)AAC(F)A(M)TTG(M)U(F)U(F)G(M)GG(M)G(M)TG(M)TCA(M)A(M)-idT (F=2'-F, M=2'-OMe, PHE=8-(propyl)phenyl-rA)
B14: SEQ ID NO: 17(16) (mixed)
RNA: B1 RNA
modifications: idT-G(M)A(M)U(F)G(M)A(M)U(F)C(F)G(M)G(M)A(M)C(F)A(M)U(F)AAC(F)A(M)TTG(M)U(F)U(F)G(M)GG(M)G(M)TG(M)TCA(PHE)A(M)-idT (F=2'-F, M=2'-OMe, PHE=8-(propyl)phenyl-rA)

Experiments:
[1] = biological target: T1, chymase (native, human skin mast cell); test: inhibition; angiotensin I substrate; details: tags: Calbiochem Human Skin
Procedure: (§1) The total volume of solution for an enzyme reaction in the assay was set to 50 μL, and the reaction was performed in solution C buffer. At first, native (manufactured by Calbiochem) was diluted with solution C to give 5 μL thereof. Here, the native is chymase purified from human skin mast cell. The nucleic acid was serially diluted with solution C at a concentration of 0.0027-2 μM to give 25 μL thereof. The chymase solution (5 μL) and the nucleic acid solution (25 μL) were mixed, and the mixture was incubated at 37° C. for 5 min. On the other hand, […] angiotensin I (manufactured by PEPTIDE […], INC.) was prepared in solution C to give 20 μL thereof, which was incubated at 37° C. for 5 min. The angiotensin I solution was added to a mixture of chymase and nucleic acid to start an enzyme reaction. The final chymase concentration of the reaction solution was 0.5 nM, and the final substrate concentration was 50 μM. After reaction at 37° C. for 90 min, ice-cooled 30% trichloroacetic acid solution (25 μL) was added to quench the reaction. The whole mixture was centrifuged at 4° C., 14000 rpm for 10 min, and the supernatant (30 μL) was used for the next fluorescence induction reaction.
(§2) The above-mentioned supernatant (30 μL) was added to a 96 well plate (black, manufactured by Costar), a solution (15 μL) of 2% o-phthalaldehyde (manufactured by SIGMA) in methanol and 0.3M NaOH solution (170 μL) were added to each well, and the mixture was incubated at room temperature for 10 min. Then, 3M HCl solution (25 μL) was added to quench the reaction. The plate was set on a microplate reader SpectraMax190 (manufactured by Molecular device) and the fluorescence intensity was measured at an excitation wavelength of 355 nm and a fluorescence wavelength of 460 nm.
The nucleic acids of SEQ ID NO: 11-20 were all produced by chemical synthesis. In the evaluation of SEQ ID NO: 11-20, a method similar to the evaluation method of inhibitory activity against chymase shown in Example 1 by using angiotensin I as a substrate was used for measurement. […] The IC₅₀ value is a mean of 2 or 3 measurements.

[2] = biological target: T1, chymase (native, human skin mast cell); test: inhibition; angiotensin I substrate; details: tags: Calbiochem Human Skin; remark: listed apart in the source
Procedure: as §1, §2
All nucleic acids of SEQ ID NO: 17(1)-17(25) were prepared by chemical synthesis. In the evaluation of SEQ ID NO: 17(1)-17(25), a method similar to the evaluation method of inhibitory activity against chymase shown in Example 1 by using angiotensin I as a substrate was used for measurement. In the Table, the IC₅₀ value is a mean of 2 or 3 measurements.

Row | Binder | IC50 [1] | IC50 [2]
1 | GGGUCAGAUGAUCGGACAUAACAUUGUUGGGGUGUCAAGGCCC (ssRNA, 2'-F pyrimidines (U, C); purines 2'-OH) [SEQ ID NO: 11] | 54.7 nM | –
2 | GGCAGAUGAUCGGACAUAACAUUGUUGGGGUGUCAAGCC (ssRNA, 2'-F pyrimidines (U, C); purines 2'-OH) [SEQ ID NO: 14] | 6.8 nM | –
3 | GAUGAUCGGACAUAACAUUGUUGGGGUGUCAAGCC (ssRNA, 2'-F pyrimidines (U, C); purines 2'-OH) [SEQ ID NO: 15] | 1.4 nM | –
4 | GGCAGAUGAUCGGACAUAACAUUGUUGGGGUGUCAA (ssRNA, 2'-F pyrimidines (U, C); purines 2'-OH) [SEQ ID NO: 16] | 2 nM | –
5 | GAUGAUCGGACAUAACAUUGUUGGGGUGUCAA (ssRNA, 2'-F pyrimidines (U, C); purines 2'-OH) [SEQ ID NO: 17] | 1.4 nM | –
6 | UGAUCGGACAUAACAUUGUUGGGGUGUCAA (ssRNA, 2'-F pyrimidines (U, C); purines 2'-OH) [SEQ ID NO: 18] | 2.1 nM | –
7 | AUCGGACAUAACAUUGUUGGGGUGUCAA (ssRNA, 2'-F pyrimidines (U, C); purines 2'-OH) [SEQ ID NO: 19] | 14.4 nM | –
8 | GAUGAUCGGACAUAACAUUGUUGGGGUGUCA (ssRNA, 2'-F pyrimidines (U, C); purines 2'-OH) [SEQ ID NO: 20] | 1.8 nM | –
9 | B1 | – | 0.21 nM
10 | B2 | – | 0.2 nM
11 | B3 | – | 0.17 nM
12 | B4 | – | 0.14 nM
13 | B5 | – | 0.17 nM
14 | B6 | – | 0.13 nM
15 | B7 | – | 0.16 nM
16 | B8 | – | 0.13 nM
17 | B9 | – | 0.14 nM
18 | B10 | – | 0.19 nM
19 | B11 | – | 0.16 nM
20 | B12 | – | 0.19 nM
21 | B13 | – | 0.13 nM
22 | B14 | – | 0.18 nM
